Experimental data published in paper PMC5014761.

Molecular target: Δ25 FLAG-MRNIP (human) (UniProt Q6NTE8)
Test: co-IP; 1 mg whole-cell extract (20 mM Tris-HCl pH 7.5, 150 mM NaCl, 1% Triton X-100, 1 mM DTT, 1 mM EDTA, Benzonase) with M2 anti-FLAG beads 16 hr at 4°C; eluted with FLAG peptide or by heating; immunoblot; HEK293 stable, tetracycline-inducible or transiently transfected cells; in Figure 2D cells exposed to the indicated doses of IR

UniProt Q6NTE8, sequence (Q6NTE8 whole entry, stated change not applied): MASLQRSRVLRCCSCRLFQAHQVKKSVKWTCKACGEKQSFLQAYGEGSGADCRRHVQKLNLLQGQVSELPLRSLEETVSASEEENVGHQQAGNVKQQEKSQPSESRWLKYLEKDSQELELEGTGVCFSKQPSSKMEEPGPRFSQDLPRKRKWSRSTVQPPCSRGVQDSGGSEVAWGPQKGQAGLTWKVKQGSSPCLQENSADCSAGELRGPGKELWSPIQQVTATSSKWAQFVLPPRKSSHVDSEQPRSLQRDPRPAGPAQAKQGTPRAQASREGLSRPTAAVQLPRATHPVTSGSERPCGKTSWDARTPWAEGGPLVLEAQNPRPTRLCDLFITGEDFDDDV

- percent reduced binding compared to WT MRNIP: 50 to 70%
Substance: the MRN complex
